Values quoted from earlier work as cited in article PMC4760235.

Molecular target: CD161 (Homo sapiens) (UniProt Q12918)
Chain of UniProt Q12918 (Q12918 whole entry): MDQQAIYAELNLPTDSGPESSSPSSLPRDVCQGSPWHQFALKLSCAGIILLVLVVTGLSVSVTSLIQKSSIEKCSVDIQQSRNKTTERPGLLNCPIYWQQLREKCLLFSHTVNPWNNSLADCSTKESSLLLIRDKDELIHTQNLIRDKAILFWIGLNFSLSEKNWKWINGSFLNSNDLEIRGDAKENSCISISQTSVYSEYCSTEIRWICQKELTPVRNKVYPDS

**Q.** With LLT1 (from UniProt Q9UHP7) as the substance, how does the Kd read?
**A.** Its Kd is 48 µM.
